Data as given in PMC3210151 (2011).

What was measured:
[1] = molecular target: RON Sema (Glu25-Gly524) (human) (UniProt Q04912); assay: SPR; Biacore T100; RON constructs amine-coupled to a CM5 chip; MSPβ as analyte (wild type 5-500 nM, R689C 32-2000 nM); 10 mM Na-HEPES pH 8.0, 150 mM NaCl, 0.005% P20, 25°C; global fit to a 1:1 Langmuir kinetic model
[2] = molecular target: RON Sema-PSI (Glu25-Pro568) (human) (UniProt Q04912); assay: as above
[3] = molecular target: RON Sema-PSI-IPT1–4 (Glu25-Ser956) (human) (UniProt Q04912); assay: as above
[4] = molecular target: RON Sema-PSI-IPT1 (Glu25-Glu683) (human) (UniProt Q04912); assay: as above
[5] = molecular target: RON Sema (Glu25-Gly524) (human) (UniProt Q04912); assay: SPR; same sensorgrams as the kinetic analysis (RON constructs amine-coupled to CM5, MSPβ as analyte, 10 mM Na-HEPES pH 8.0, 150 mM NaCl, 0.005% P20, 25°C); Kd from an equilibrium model
[6] = molecular target: RON Sema-PSI (Glu25-Pro568) (human) (UniProt Q04912); assay: as above
[7] = molecular target: RON Sema-PSI-IPT1–4 (Glu25-Ser956) (human) (UniProt Q04912); assay: as above
[8] = molecular target: RON Sema-PSI-IPT1 (Glu25-Glu683) (human) (UniProt Q04912); assay: as above
[9] = molecular target: RON constructs; assay: SPR; dimeric MSPβ R689C on RON constructs; method and conditions not told in the sentence (SPR is the paper's only binding method)
[10] = molecular target: wild type MSPβ (macrophage stimulating protein β-chain with the adjoining 19 residues of the α-chain, … (human, UniProt P26927 465-711, C672S)); assay: SPR; solution competition
[11] = molecular target: MSPβ R689C (Phe465-Gly711, C672S, R689C) (human, UniProt P26927 465-711, C672S | R689C); assay: SPR; solution competition

MSPβ R689C (Phe465-Gly711, C672S, R689C) (from UniProt P26927 465-711) (domain or fragment)
Kd [1]: 170 nM
koff [1]: 0.081 s⁻¹
kon [1]: 480000 M⁻¹ s⁻¹
Kd [2]: 233 nM
koff [2]: 0.062 s⁻¹
kon [2]: 270000 M⁻¹ s⁻¹
Kd [3]: 157 nM
koff [3]: 0.055 s⁻¹
kon [3]: 350000 M⁻¹ s⁻¹
Kd [4]: 148 nM
koff [4]: 0.129 s⁻¹
kon [4]: 870000 M⁻¹ s⁻¹
Kd [5]: 139 nM
Kd [6]: 244 nM
Kd [7]: 158 nM
Kd [8]: 154 nM

dimeric MSPβ R689C (from UniProt P26927 465-711) (complex)
Kd [9]: 3.7 to 4.9 nM

wild type MSPβ (macrophage stimulating protein β-chain with the adjoining 19 residues of the α-chain, Phe465-Gly711, C672S) (from UniProt P26927 465-711) (domain or fragment)
Kd [1]: 13.3 nM
koff [1]: 0.031 s⁻¹
kon [1]: 2.31e+06 M⁻¹ s⁻¹
Kd [2]: 21.2 nM
koff [2]: 0.028 s⁻¹
kon [2]: 1.33e+06 M⁻¹ s⁻¹
Kd [3]: 13.5 nM
koff [3]: 0.023 s⁻¹
kon [3]: 1.69e+06 M⁻¹ s⁻¹
Kd [4]: 15.1 nM
koff [4]: 0.027 s⁻¹
kon [4]: 1.76e+06 M⁻¹ s⁻¹
Kd [5]: 16.4 nM
Kd [6]: 32 nM
Kd [7]: 22.6 nM
Kd [8]: 17.8 nM

B1: RON Sema (Glu25-Gly524) (domain or fragment)
chain: EDWQCPRTPYAASRDFDVKYVVPSFSAGGLVQAMVTYEGDRNESAVFVAIRNRLHVLGPDLKSVQSLATGPAGDPGCQTCAACGPGPHGPPGDTDTKVLVLDPALPALVSCGSSLQGRCFLHDLEPQGTAVHLAAPACLFSAHHNRPDDCPDCVASPLGTRVTVVEQGQASYFYVASSLDAAVAASFSPRSVSIRRLKADASGFAPGFVALSVLPKHLVSYSIEYVHSFHTGAFVYFLTVQPASVTDDPSALHTRLARLSATEPELGDYRELVLDCRFAPKLVPRGSPEGGQPYPVLRVAHSAPVGAQLATELSIAEGQEVLFGVFVTGKDGGPGVGPNSVVCAFPIDLLDTLIDEGVERCCESPVHPGLRRGLDFFQSPSFCPNPPGLEALSPNTSCRHFPLLVSSSFSRVDLFNGLLGPVQVTALYVTRLDNVTVAHMGTMDGRILQVELVRSLNYLLYVSNFSLGDSGQPVQRDVSRLGDHLLFASGDQVFQVPIQG
Kd [10]: 17.6 nM

B2: RON Sema-PSI-IPT1–4 (Glu25-Ser956) (domain or fragment)
chain: EDWQCPRTPYAASRDFDVKYVVPSFSAGGLVQAMVTYEGDRNESAVFVAIRNRLHVLGPDLKSVQSLATGPAGDPGCQTCAACGPGPHGPPGDTDTKVLVLDPALPALVSCGSSLQGRCFLHDLEPQGTAVHLAAPACLFSAHHNRPDDCPDCVASPLGTRVTVVEQGQASYFYVASSLDAAVAASFSPRSVSIRRLKADASGFAPGFVALSVLPKHLVSYSIEYVHSFHTGAFVYFLTVQPASVTDDPSALHTRLARLSATEPELGDYRELVLDCRFAPKLVPRGSPEGGQPYPVLRVAHSAPVGAQLATELSIAEGQEVLFGVFVTGKDGGPGVGPNSVVCAFPIDLLDTLIDEGVERCCESPVHPGLRRGLDFFQSPSFCPNPPGLEALSPNTSCRHFPLLVSSSFSRVDLFNGLLGPVQVTALYVTRLDNVTVAHMGTMDGRILQVELVRSLNYLLYVSNFSLGDSGQPVQRDVSRLGDHLLFASGDQVFQVPIQGPGCRHFLTCGRCLRAWHFMGCGWCGNMCGQQKECPGSWQQDHCPPKLTEFHPHSGPLRGSTRLTLCGSNFYLHPSGLVPEGTHQVTVGQSPCRPLPKDSSKLRPVPRKDFVEEFECELEPLGTQAVGPTNVSLTVTNMPPGKHFRVDGTSVLRGFSFMEPVLIAVQPLFGPRAGGTCLTLEGQSLSVGTSRAVLVNGTECLLARVSEGQLLCATPPGATVASVPLSLQVGGAQVPGSWTFQYREDPVVLSISPNCGYINSHITICGQHLTSAWHLVLSFHDGLRAVESRCERQLPEQQLCRLPEYVVRDPQGWVAGNLSARGDGAAGFTLPGFRFLPPPHPPSANLVPLKPEEHAIKFEYIGLGAVADCVGINVTVGGESCQHEFRGDMVVCPLPPSLQLGQDGAPLQVCVDGECHILGRVVRPGPDGVPQS
Kd [10]: 52.8 nM
Kd [11]: 381 nM
